In PMC6405639:

Target: 5(6)-TAMRA-Ahx(5-24)NPY (porcine)
Assay: fluorescence polarisation; homogenous binding assay; 5 nM 5(6)-TAMRA-Ahx(5-24)NPY with increasing concentrations of affinity purified Y2R_cysteine_deficient in Brij-58 micelles in binding buffer, 60 min, room temperature; fall of fluorescence in the S-plane; the paper says that the EC50 constitutes the Kd

EC50: 49 nM
B1: Y2R_cysteine_deficient with C-terminal deca-histidine-tag (cell-free expressed) (receptor)
chain: MGPIGAEADENQTVEEMKVEQYGPQTTPRGELVPDPEPELIDSTKLIEVQVVLILAYASIILLGVIGNSLVIHVVIKFKSMRTVTNFFIANLAVADLLVNTLSLPFTLTYTLMGEWKMGPVLCHLVPYAQGLAVQVSTITLTVIALDRHRSIVYHLESKISKRISFLIIGLAWGISALLASPLAIFREYSLIEIIPDFEIVACTEKWPGEEKSIYGTVYSLSSLLILYVLPLGIISFSYTRIWSKLKNHVSPGAANDHYHQRRQKTTKMLVAVVVVFAVSWLPLHAFQLAVDIDSQVLDLKEYKLIFTVFHIIAMASTFANPLLYGWMNSNYRKAFLSAFRAEQRLDAIHSEVSVTFKAKKNLEVRKNSGPNDSFTEATNV
